Positions count from the first letter of the chain named.
B1: 噬菌体展示的A4抗体 (单克隆抗体A4) (antibody, V domains shown)
VH: EVQLLESGGGLVQPGGSLRLSCAASGFTFSSYAMSWVRQAPGKGLEWVSYITNNGANTSYADSVKGRFTISRDNSKNTLYLQMNSLRAEDTAVYYCAKSYATFDYWGQGTLVTVSS
VL: DIQMTQSPSSLSASVGDRVTITCRASQSISSYLNWYQQKPGKAPKLLIYNASGLQSGVPSRFSGSGSGTDFTLTISSLQPEDFATYYCQQAAYYPTTFGQGTKVEIKR
notes: also called 噬菌体展示A4抗体; A4噬菌体
B2: 噬菌体展示的A2抗体 (单克隆抗体A2) (antibody, V domains shown)
VH: B1 VH with Y50G, T52D, N53A, N54S, A56Y, N57Y, S99D, Y100A, A101Y
VL: B1 VL with N50S, G53Y, A92S, Y93A, Y94D, T96D
B3: 噬菌体展示的C3抗体 (单克隆抗体C3) (antibody, V domains shown)
VH: EVQLLESGGGLVQPGGSLRLSCAASGFTFSSYAMSWVRQAPGKGLEWVSSIASSGYYTDYADSVKGRFTISRDNSKNTLYLQMNSLRAEDTAVYYCAKDADSFDYWGQGTLVTVSS
VL: B1 VL with N50A, G53Y, A92Y, Y93S, Y94A, T96S

Each binder was assayed against T1, 牛血清白蛋白BSA (bovine, UniProt P02769 25-607) (assay: phage ELISA, coated protein).
T1 construct: also called BSA蛋白; 牛血清蛋白
T1 sequence (P02769 25-607 limits assumed): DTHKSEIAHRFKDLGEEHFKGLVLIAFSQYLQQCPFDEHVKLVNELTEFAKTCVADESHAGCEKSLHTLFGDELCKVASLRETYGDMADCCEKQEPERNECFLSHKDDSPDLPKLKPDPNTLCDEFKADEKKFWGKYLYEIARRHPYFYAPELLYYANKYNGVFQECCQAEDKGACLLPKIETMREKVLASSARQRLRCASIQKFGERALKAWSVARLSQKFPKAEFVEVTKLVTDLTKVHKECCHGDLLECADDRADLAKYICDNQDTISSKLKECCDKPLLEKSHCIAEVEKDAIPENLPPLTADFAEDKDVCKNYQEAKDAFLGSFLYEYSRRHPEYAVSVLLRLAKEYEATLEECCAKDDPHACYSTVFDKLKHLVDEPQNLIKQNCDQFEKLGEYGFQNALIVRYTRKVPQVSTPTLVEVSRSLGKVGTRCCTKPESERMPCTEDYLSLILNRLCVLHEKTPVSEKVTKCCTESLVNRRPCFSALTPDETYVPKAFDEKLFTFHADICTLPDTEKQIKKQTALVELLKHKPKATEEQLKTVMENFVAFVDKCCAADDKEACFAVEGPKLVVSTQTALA

Row | Binder | binding result
1 | B1 | no binding (tested: 1μg/mL coated)
2 | B2 | no binding (tested: 1μg/mL coated)
3 | B3 | no binding (tested: 1μg/mL coated)

— CN111995676A (UNIV WEIFANG MEDICAL, dated 2020)
